According to article PMC8983682 (Nature Communications, 2022):

Target: full-length N1-CA09-sNAp-130, membrane-anchored, C-terminal myc tag (Influenza A virus A/California/07/2009 …, UniProt C7FH46, stabilised)
Assay: flow cytometry on cells
Details: one partner purified

B1: CD6 IgG (antibody, V domains shown)
VH: QVKLQESGGGLVQPKGSLKLSCAASGFTFNTYAMNWVRQAPGKGLEWVARIRSKSNNYATFYADSVKDRFTISRDDSQSMLYLQMHNLKTDDTAMYYCVRPSIYYYASGYLDVWGAGTTVTVSS
VL: QIVLSQSPAILSASPGEKVTMTCRTSSSVSYMHWYQQKPGSSPKPWIYATSNLASGVPFRFSGSGSGTSYSLTISRVEAEDAATYYCQQWNSNPPTFGGGTKLEIK
notes: copies: 2 + 2
binding result: binds
